Measurements from the supplement of paper PMC9112550, “Optimization of the antimicrobial peptide Bac7 by deep mutational scanning” (BMC Biology, 2022).

Tested on: Escherichia coli TOP10
Assay: shrunken log2 fold change of peptide-encoding DNA abundance (4.5 h post-induction vs induction); higher = less antimicrobial activity (less host growth inhibition)
Conditions: time post-induction: 4.5 h; library: site-saturation at positions 5, 18, 19, 20
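Further: peptides expressed intracellularly from a pBAD plasmid library in pooled LB shake-flask culture, induced with 0.3% L-arabinose, DNA abundance read by NGS, three biological replicates, DESeq2 with apeglm shrinkage.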

Sequence | shrunken log2 fold change
RRIRKRPPRLPRPRPRPRTSPRP | 0.525
RRIRARPPRLPRPRPRPTTSPRP | 0.292
RRIRWRPPRLPRPRPRPKPQPRP | 0.391
RRIRIRPPRLPRPRPRPQHDPRP | -0.0884
RRIRERPPRLPRPRPRPVYLPRP | -0.267
RRIRWRPPRLPRPRPRPWKNPRP | 0.0346
RRIRTRPPRLPRPRPRPWNLPRP | -0.031
RRIRARPPRLPRPRPRPCMNPRP | -0.0756
RRIRSRPPRLPRPRPRPTERPRP | 0.142
RRIRFRPPRLPRPRPRPDAQPRP | 0.483
RRIRDRPPRLPRPRPRPEFLPRP | 0.0745
RRIRIRPPRLPRPRPRPIYIPRP | -0.159
RRIRMRPPRLPRPRPRPQGLPRP | 0.0389
RRIRFRPPRLPRPRPRPCFMPRP | -0.213
RRIRTRPPRLPRPRPRPVGNPRP | 0.0924
RRIRWRPPRLPRPRPRPVDFPRP | 0.0271
RRIRQRPPRLPRPRPRPDTQPRP | -0.401
RRIRYRPPRLPRPRPRPSWSPRP | -0.179
RRIRPRPPRLPRPRPRPEMMPRP | 0.00381
RRIRWRPPRLPRPRPRPPLPPRP | 1.07
RRIRYRPPRLPRPRPRPCFLPRP | -1
RRIRRRPPRLPRPRPRPDFQPRP | -0.135
RRIRKRPPRLPRPRPRPPFTPRP | 0.243
RRIRYRPPRLPRPRPRPGMNPRP | -0.227
RRIRKRPPRLPRPRPRPRYRPRP | -0.0384

Sequence | shrunken log2 fold change
RRIRDRPPRLPRPRPRPGFIPRP | -0.202
RRIRDRPPRLPRPRPRPEQNPRP | 0.517
RRIRQRPPRLPRPRPRPGLMPRP | -0.0533
RRIRIRPPRLPRPRPRPFSIPRP | -0.643
RRIRNRPPRLPRPRPRPFSMPRP | -0.00235
RRIRARPPRLPRPRPRPKCYPRP | 0.00925
RRIRSRPPRLPRPRPRPCKVPRP | -0.265
RRIRPRPPRLPRPRPRPYCRPRP | 0.0122
RRIRHRPPRLPRPRPRPIVIPRP | -0.158
RRIRWRPPRLPRPRPRPDKNPRP | 0.142
RRIRLRPPRLPRPRPRPLELPRP | -0.0406
RRIRERPPRLPRPRPRPCGDPRP | -0.231
RRIRLRPPRLPRPRPRPCRPPRP | -0.0863
RRIRSRPPRLPRPRPRPGVWPRP | 0.74
RRIRGRPPRLPRPRPRPNLVPRP | 0.0862
RRIRVRPPRLPRPRPRPKNCPRP | -0.183
RRIRDRPPRLPRPRPRPVPFPRP | 2.99
RRIRVRPPRLPRPRPRPRIAPRP | 0.0659
RRIRIRPPRLPRPRPRPSEHPRP | -0.36
RRIRTRPPRLPRPRPRPQQWPRP | 0.46
RRIRTRPPRLPRPRPRPIKWPRP | 0.0186
RRIRGRPPRLPRPRPRPAMTPRP | 1.48
RRIRERPPRLPRPRPRPMHHPRP | -0.394
RRIRVRPPRLPRPRPRPHCFPRP | -0.147
RRIRYRPPRLPRPRPRPLIDPRP | -0.00288

Sequence | shrunken log2 fold change
RRIRNRPPRLPRPRPRPFYKPRP | -0.575
RRIRCRPPRLPRPRPRPMMQPRP | 0.0143
RRIRDRPPRLPRPRPRPWSYPRP | -1.29
RRIRDRPPRLPRPRPRPFIVPRP | -0.193
RRIRHRPPRLPRPRPRPCCAPRP | -0.0125
RRIRFRPPRLPRPRPRPYHNPRP | -0.882
RRIRRRPPRLPRPRPRPITQPRP | -0.0203
RRIRCRPPRLPRPRPRPQNTPRP | -0.691
RRIRARPPRLPRPRPRPRVYPRP | 0.441
RRIRQRPPRLPRPRPRPFPCPRP | 0.0349
RRIRVRPPRLPRPRPRPWALPRP | -0.112
RRIRERPPRLPRPRPRPTLEPRP | 0.034
RRIRVRPPRLPRPRPRPMGHPRP | 0.0767
RRIRLRPPRLPRPRPRPCGKPRP | -0.196
RRIRERPPRLPRPRPRPMIQPRP | -0.176
RRIRFRPPRLPRPRPRPGFNPRP | -0.22
RRIRGRPPRLPRPRPRPRVVPRP | 0.667
RRIRFRPPRLPRPRPRPPWMPRP | 0.355
RRIRLRPPRLPRPRPRPGHLPRP | 0.00551
RRIRRRPPRLPRPRPRPCSSPRP | 0.0589
RRIRCRPPRLPRPRPRPSARPRP | 0.16
RRIRNRPPRLPRPRPRPIEAPRP | 0.0895
RRIRGRPPRLPRPRPRPADQPRP | 0.887
RRIRCRPPRLPRPRPRPHFVPRP | -0.23
RRIRVRPPRLPRPRPRPECSPRP | -0.091

Sequence | shrunken log2 fold change
RRIRERPPRLPRPRPRPVQVPRP | -0.227
RRIRRRPPRLPRPRPRPPWYPRP | 0.0413
RRIRSRPPRLPRPRPRPNSLPRP | -0.165
RRIRRRPPRLPRPRPRPMSNPRP | -0.0453
RRIRKRPPRLPRPRPRPMPMPRP | 0.00883
RRIRNRPPRLPRPRPRPVSNPRP | -0.00917
RRIRPRPPRLPRPRPRPSHQPRP | 0.189
RRIRARPPRLPRPRPRPYAGPRP | -0.534
RRIRGRPPRLPRPRPRPECPPRP | 0.475
RRIRPRPPRLPRPRPRPQLYPRP | -0.0926
RRIRQRPPRLPRPRPRPCHRPRP | 0.0197
RRIRKRPPRLPRPRPRPFEFPRP | 0.0169
RRIRTRPPRLPRPRPRPYSPPRP | -0.226
RRIRIRPPRLPRPRPRPLLKPRP | -0.428
RRIRLRPPRLPRPRPRPSFDPRP | -0.373
RRIRARPPRLPRPRPRPDANPRP | 0.275
RRIRYRPPRLPRPRPRPWTTPRP | -0.000803
RRIRIRPPRLPRPRPRPHLHPRP | -0.784
RRIRYRPPRLPRPRPRPNEFPRP | -0.498
RRIRARPPRLPRPRPRPVRPPRP | 0.602
RRIRRRPPRLPRPRPRPPLSPRP | 0.996
RRIRDRPPRLPRPRPRPPVNPRP | 0.519
RRIRSRPPRLPRPRPRPAIRPRP | -0.0385
RRIRWRPPRLPRPRPRPLSLPRP | 0.0175
RRIRQRPPRLPRPRPRPQHDPRP | -0.477

Sequence | shrunken log2 fold change
RRIRMRPPRLPRPRPRPSDWPRP | 0.998
RRIRWRPPRLPRPRPRPHACPRP | 0.171
RRIRLRPPRLPRPRPRPNLKPRP | -0.367
RRIRQRPPRLPRPRPRPREYPRP | -0.0403
RRIRFRPPRLPRPRPRPHGHPRP | -0.18
RRIRARPPRLPRPRPRPTYYPRP | -0.119
RRIRNRPPRLPRPRPRPGSKPRP | 0.00175
RRIRMRPPRLPRPRPRPHYKPRP | -0.539
RRIRWRPPRLPRPRPRPVFRPRP | -0.153
RRIRKRPPRLPRPRPRPQHEPRP | 0.198
RRIRGRPPRLPRPRPRPIYEPRP | -0.0413
RRIRERPPRLPRPRPRPGNSPRP | -0.115
RRIRARPPRLPRPRPRPTARPRP | 0.874
RRIRPRPPRLPRPRPRPTKAPRP | -0.191
RRIRIRPPRLPRPRPRPSRFPRP | -0.278
RRIRSRPPRLPRPRPRPFQCPRP | -0.461
RRIRRRPPRLPRPRPRPQSMPRP | 0.0695
RRIRERPPRLPRPRPRPYPFPRP | -0.52
RRIRTRPPRLPRPRPRPHVIPRP | -0.192
RRIRSRPPRLPRPRPRPDGIPRP | -0.0491
RRIRRRPPRLPRPRPRPDYQPRP | 0.0952
RRIRVRPPRLPRPRPRPAIYPRP | -0.294
RRIRGRPPRLPRPRPRPLACPRP | 0.975
RRIRRRPPRLPRPRPRPTCGPRP | 0.506
RRIRLRPPRLPRPRPRPRRWPRP | 0.497
